{"source": "patent US20240132591A1", "about": "(PANDION OPERATIONS, published 2024)", "binders": {"B1": {"name": "PMAB43 (bispecific antibody, human IgG1, kappa)", "heavy": "EVQLLESGGGLVQPGGSLRLSCAASGFTFSNSDMSWVRQAPGKGLEWVSGITISGGSTYYADSVKGRFTISRDNSKNTLYLQMNSLRAEDTAVYYCARGRGGSGWLDYWGQGTLVTVSSASTKGPSVFPLAPSSKSTSGGTAALGCLVKDYFPEPVTVSWNSGALTSGVHTFPAVLQSSGLYSLSSVVTVPSSSLGTQTYICNVNHKPSNTKVDKKVEPKSCDKTHTCPPCPAPEAAGAPSVFLFPPKPKDTLMISRTPEVTCVVVDVSHEDPEVKFNWYVDGVEVHNAKTKPREEQYNSTYRVVSVLTVLHQDWLNGKEYKCKVSNKALPAPIEKTISKAKGQPREPQVYTLPPSREEMTKNQVSLTCLVKGFYPSDIAVEWESNGQPENNYKTTPPVLDSDGSFFLYSKLTVDKSRWQQGNVFSCSVMHEALHNHYTQKSLSLSPGGGGGSGGGGSGGGGSEVQLLESGGGLVQPGGSLRLSCAASGFTFSDFWMHWVRQAPGKGLEWISYISGDSGYTNYADSVKGRFTISRDNSKNTLYLQMNSLRAEDTAVYYCARDRPYYYYMDVWGKGTTVTVSSGGGGSGGGGSGGGGSGGGGSDIQMTQSPSSLSASVGDRVTITCRASQSVSRSLAWYQQKPGKAPKLLIYAASSLQSGVPSRFSGSGSGTDFTLTISSLQPEDFATYYCQQYKSYPRTFGQGTKVEIK", "light": "not shown"}, "B2": {"name": "MIAB133 (antibody, human IgG1, kappa)", "heavy": "EVQLLESGGGLVQPGGSLRLSCAASGFTFSSFWMHWVRQAPGKGLEWISYISGDSGYTNYADSVKGRFTISRDNSKNTLYLQMNSLRAEDTAVYYCARDRPYYYYMDVWGKGTTVTVSSASTKGPSVFPLAPSSKSTSGGTAALGCLVKDYFPEPVTVSWNSGALTSGVHTFPAVLQSSGLYSLSSVVTVPSSSLGTQTYICNVNHKPSNTKVDKKVEPKSCDKTHTCPPCPAPEAAGAPSVFLFPPKPKDTLMISRTPEVTCVVVDVSHEDPEVKFNWYVDGVEVHNAKTKPREEQYNSTYRVVSVLTVLHQDWLNGKEYKCKVSNKALPAPIEKTISKAKGQPREPQVYTLPPSREEMTKNQVSLTCLVKGFYPSDIAVEWESNGQPENNYKTTPPVLDSDGSFFLYSKLTVDKSRWQQGNVFSCSVMHEALHNHYTQKSLSLSPGGGGGSAPTSSSTKKTQLQLEHLLLDLQMILNGINNYKNPKLTRMLTFKFYMPKKATELKHLQCLEEELKPLEEALNLAPSKNFHLRPRDLISDINVIVLELKGSETTFMCEYADETATIVEFINRWITFSQSIISTLT", "light": "DIQMTQSPSSLSASVGDRVTITCRASQSVSRSLAWYQQKPGKAPKLLIYAASSLQSGVPSRFSGSGSGTDFTLTISSLQPEDFATYYCQQYKSYPVTFGQGTKVEIKRTVAAPSVFIFPPSDEQLKSGTASVVCLLNNFYPREAKVQWKVDNALQSGNSQESVTEQDSKDSTYSLSSTLTLSKADYEKHKVYACEVTHQGLSSPVTKSFNRGEC", "notes": "also called MIAB133-001"}, "B3": {"name": "MIAB136 (antibody, human IgG1, kappa)", "heavy": "EVQLLESGGGLVQPGGSLRLSCAASGFTFSSYAMSWVRQAPGKGLEWISYISGDSGYTNYADSVKGRFTISRDNSKNTLYLQMNSLRAEDTAVYYCARDRPYYYYMDVWGKGTTVTVSSASTKGPSVFPLAPSSKSTSGGTAALGCLVKDYFPEPVTVSWNSGALTSGVHTFPAVLQSSGLYSLSSVVTVPSSSLGTQTYICNVNHKPSNTKVDKKVEPKSCDKTHTCPPCPAPEAAGAPSVFLFPPKPKDTLMISRTPEVTCVVVDVSHEDPEVKFNWYVDGVEVHNAKTKPREEQYNSTYRVVSVLTVLHQDWLNGKEYKCKVSNKALPAPIEKTISKAKGQPREPQVYTLPPSREEMTKNQVSLTCLVKGFYPSDIAVEWESNGQPENNYKTTPPVLDSDGSFFLYSKLTVDKSRWQQGNVFSCSVMHEALHNHYTQKSLSLSPGGGGGSAPTSSSTKKTQLQLEHLLLDLQMILNGINNYKNPKLTRMLTFKFYMPKKATELKHLQCLEEELKPLEEALNLAPSKNFHLRPRDLISDINVIVLELKGSETTFMCEYADETATIVEFINRWITFSQSIISTLT", "light": "DIQMTQSPSSLSASVGDRVTITCRASQSVSRSLAWYQQKPGKAPKLLIYAASSLQSGVPSRFSGSGSGTDFTLTISSLQPEDFATYYCQQYKSYPVTFGQGTKVEIKRTVAAPSVFIFPPSDEQLKSGTASVVCLLNNFYPREAKVQWKVDNALQSGNSQESVTEQDSKDSTYSLSSTLTLSKADYEKHKVYACEVTHQGLSSPVTKSFNRGEC", "notes": "HCDR1 germlined"}, "B4": {"name": "MIAB146 (antibody, human IgG1, kappa)", "heavy": "EVQLLESGGGLVQPGGSLRLSCAASGFTFSDFWMHWVRQAPGKGLEWISYISGDSGYTNYADSVKGRFTISRDNSKNTLYLQMNSLRAEDTAVYYCARDRPYYYYMDVWGKGTTVTVSSASTKGPSVFPLAPSSKSTSGGTAALGCLVKDYFPEPVTVSWNSGALTSGVHTFPAVLQSSGLYSLSSVVTVPSSSLGTQTYICNVNHKPSNTKVDKKVEPKSCDKTHTCPPCPAPEAAGAPSVFLFPPKPKDTLMISRTPEVTCVVVDVSHEDPEVKFNWYVDGVEVHNAKTKPREEQYNSTYRVVSVLTVLHQDWLNGKEYKCKVSNKALPAPIEKTISKAKGQPREPQVYTLPPSREEMTKNQVSLTCLVKGFYPSDIAVEWESNGQPENNYKTTPPVLDSDGSFFLYSKLTVDKSRWQQGNVFSCSVMHEALHNHYTQKSLSLSPGGGGGSAPTSSSTKKTQLQLEHLLLDLQMILNGINNYKNPKLTRMLTFKFYMPKKATELKHLQCLEEELKPLEEALNLAPSKNFHLRPRDLISDINVIVLELKGSETTFMCEYADETATIVEFINRWITFSQSIISTLT", "light": "DIQMTQSPSSLSASVGDRVTITCRASQSVSSSLAWYQQKPGKAPKLLIYAASSLQSGVPSRFSGSGSGTDFTLTISSLQPEDFATYYCQQYKSYPVTFGQGTKVEIKRTVAAPSVFIFPPSDEQLKSGTASVVCLLNNFYPREAKVQWKVDNALQSGNSQESVTEQDSKDSTYSLSSTLTLSKADYEKHKVYACEVTHQGLSSPVTKSFNRGEC", "notes": "also called MIAB146-001"}, "B5": {"name": "MIAB149 (antibody, human IgG1, kappa)", "heavy": "EVQLLESGGGLVQPGGSLRLSCAASGFTFSDFWMHWVRQAPGKGLEWISYISGDSGYTNYADSVKGRFTISRDNSKNTLYLQMNSLRAEDTAVYYCARDRPYYYYMDVWGKGTTVTVSSASTKGPSVFPLAPSSKSTSGGTAALGCLVKDYFPEPVTVSWNSGALTSGVHTFPAVLQSSGLYSLSSVVTVPSSSLGTQTYICNVNHKPSNTKVDKKVEPKSCDKTHTCPPCPAPEAAGAPSVFLFPPKPKDTLMISRTPEVTCVVVDVSHEDPEVKFNWYVDGVEVHNAKTKPREEQYNSTYRVVSVLTVLHQDWLNGKEYKCKVSNKALPAPIEKTISKAKGQPREPQVYTLPPSREEMTKNQVSLTCLVKGFYPSDIAVEWESNGQPENNYKTTPPVLDSDGSFFLYSKLTVDKSRWQQGNVFSCSVMHEALHNHYTQKSLSLSPGGGGGSAPTSSSTKKTQLQLEHLLLDLQMILNGINNYKNPKLTRMLTFKFYMPKKATELKHLQCLEEELKPLEEALNLAPSKNFHLRPRDLISDINVIVLELKGSETTFMCEYADETATIVEFINRWITFSQSIISTLT", "light": "not shown", "notes": "also called MIAB149-001"}, "B6": {"name": "MIAB147 (antibody, human IgG1, kappa)", "heavy": "EVQLLESGGGLVQPGGSLRLSCAASGFTFSDFWMHWVRQAPGKGLEWISYISGDSGYTNYADSVKGRFTISRDNSKNTLYLQMNSLRAEDTAVYYCARDRPYYYYMDVWGKGTTVTVSSASTKGPSVFPLAPSSKSTSGGTAALGCLVKDYFPEPVTVSWNSGALTSGVHTFPAVLQSSGLYSLSSVVTVPSSSLGTQTYICNVNHKPSNTKVDKKVEPKSCDKTHTCPPCPAPEAAGAPSVFLFPPKPKDTLMISRTPEVTCVVVDVSHEDPEVKFNWYVDGVEVHNAKTKPREEQYNSTYRVVSVLTVLHQDWLNGKEYKCKVSNKALPAPIEKTISKAKGQPREPQVYTLPPSREEMTKNQVSLTCLVKGFYPSDIAVEWESNGQPENNYKTTPPVLDSDGSFFLYSKLTVDKSRWQQGNVFSCSVMHEALHNHYTQKSLSLSPGGGGGSAPTSSSTKKTQLQLEHLLLDLQMILNGINNYKNPKLTRMLTFKFYMPKKATELKHLQCLEEELKPLEEALNLAPSKNFHLRPRDLISDINVIVLELKGSETTFMCEYADETATIVEFINRWITFSQSIISTLT", "light": "not shown", "notes": "also called MIAB147-001"}, "B7": {"name": "MIAB145 (antibody, human IgG1, kappa)", "heavy": "EVQLLESGGGLVQPGGSLRLSCAASGFTFSDFWMHWVRQAPGKGLEWISYISGDSGYTNYADSVKGRFTISRDNSKNTLYLQMNSLRAEDTAVYYCARDRPYYYYMDVWGKGTTVTVSSASTKGPSVFPLAPSSKSTSGGTAALGCLVKDYFPEPVTVSWNSGALTSGVHTFPAVLQSSGLYSLSSVVTVPSSSLGTQTYICNVNHKPSNTKVDKKVEPKSCDKTHTCPPCPAPEAAGAPSVFLFPPKPKDTLMISRTPEVTCVVVDVSHEDPEVKFNWYVDGVEVHNAKTKPREEQYNSTYRVVSVLTVLHQDWLNGKEYKCKVSNKALPAPIEKTISKAKGQPREPQVYTLPPSREEMTKNQVSLTCLVKGFYPSDIAVEWESNGQPENNYKTTPPVLDSDGSFFLYSKLTVDKSRWQQGNVFSCSVMHEALHNHYTQKSLSLSPGGGGGSAPTSSSTKKTQLQLEHLLLDLQMILNGINNYKNPKLTRMLTFKFYMPKKATELKHLQCLEEELKPLEEALNLAPSKNFHLRPRDLISDINVIVLELKGSETTFMCEYADETATIVEFINRWITFSQSIISTLT", "light": "not shown", "notes": "also called MIAB145-001"}, "B8": {"name": "MIAB137 (antibody, human IgG1, kappa)", "heavy": "EVQLLESGGGLVQPGGSLRLSCAASGFTFSDFWMHWVRQAPGKGLEWVSAISGSGGSTYYADSVKGRFTISRDNSKNTLYLQMNSLRAEDTAVYYCARDRPYYYYMDVWGKGTTVTVSSASTKGPSVFPLAPSSKSTSGGTAALGCLVKDYFPEPVTVSWNSGALTSGVHTFPAVLQSSGLYSLSSVVTVPSSSLGTQTYICNVNHKPSNTKVDKKVEPKSCDKTHTCPPCPAPEAAGAPSVFLFPPKPKDTLMISRTPEVTCVVVDVSHEDPEVKFNWYVDGVEVHNAKTKPREEQYNSTYRVVSVLTVLHQDWLNGKEYKCKVSNKALPAPIEKTISKAKGQPREPQVYTLPPSREEMTKNQVSLTCLVKGFYPSDIAVEWESNGQPENNYKTTPPVLDSDGSFFLYSKLTVDKSRWQQGNVFSCSVMHEALHNHYTQKSLSLSPGGGGGSAPTSSSTKKTQLQLEHLLLDLQMILNGINNYKNPKLTRMLTFKFYMPKKATELKHLQCLEEELKPLEEALNLAPSKNFHLRPRDLISDINVIVLELKGSETTFMCEYADETATIVEFINRWITFSQSIISTLT", "light": "DIQMTQSPSSLSASVGDRVTITCRASQSVSRSLAWYQQKPGKAPKLLIYAASSLQSGVPSRFSGSGSGTDFTLTISSLQPEDFATYYCQQYKSYPVTFGQGTKVEIKRTVAAPSVFIFPPSDEQLKSGTASVVCLLNNFYPREAKVQWKVDNALQSGNSQESVTEQDSKDSTYSLSSTLTLSKADYEKHKVYACEVTHQGLSSPVTKSFNRGEC", "notes": "HCDR2 germlined"}}, "data": [{"target": "T1, Human MAdCAM (human, UniProt Q13477 19-317, limits assumed)", "T1 construct": "also called huMAdCAM; human MAdCAM-1", "T1 sequence (looked up)": "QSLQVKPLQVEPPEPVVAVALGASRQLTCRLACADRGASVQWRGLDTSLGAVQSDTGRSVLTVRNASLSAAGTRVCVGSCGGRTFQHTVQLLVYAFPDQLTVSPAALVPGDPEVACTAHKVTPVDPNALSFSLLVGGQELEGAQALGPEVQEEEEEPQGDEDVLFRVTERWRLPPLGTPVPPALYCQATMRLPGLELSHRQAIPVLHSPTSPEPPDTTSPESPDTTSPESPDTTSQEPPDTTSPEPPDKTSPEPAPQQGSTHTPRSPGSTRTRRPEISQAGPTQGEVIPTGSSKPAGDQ", "assay": "BLI Octet, AHC capture", "units": {"Kd": "nM", "koff": "s⁻¹", "kon": "M⁻¹ s⁻¹"}, "values": [{"binder": "B1", "binding result": "no binding (tested: 200 nM top concentration)"}, {"binder": "B2", "Kd": 20, "koff": 0.0113, "kon": 564000}, {"binder": "B3", "binding result": "no binding (tested: 150 nM)"}, {"binder": "B4", "Kd": 43.8, "koff": 0.0197, "kon": 449000}, {"binder": "B5", "Kd": 68.8, "koff": 0.0259, "kon": 376000}, {"binder": "B6", "binding result": "no binding (tested: 200 nM)"}, {"binder": "B7", "Kd": 22.2, "koff": 0.00897, "kon": 405000}, {"binder": "B8", "Kd": 203, "koff": 0.082, "kon": 404000}]}]}
